Assay results from patent US20120264693A1, “COMPOUNDS ACTING AS PEPTIDE GAP JUNCTION MODULATORS, AND USES THEREOF” (Zealand Pharma A/S, priority 2009, published 2012).

What was measured:
recombinant rat Cx43CT = recombinant rat Cx43CT (Rattus norvegicus, UniProt P08050); test: Surface plasmon resonance (SPR) binding of peptides to immobilised Cx43CT; conditions: for binding to the Cx43CT (in words): SPR, FIG. 1 / Table 2; for (ru * 100)/Mw: response normalised to molecular weight
Description: FIG. 1. SPR results for compounds (peptides) ZP2769 and ZP2771. Recombinant rat Cx43CT was covalently bound to a carboxylmethyl dextran matrix and used as ligand. Peptides were presented to the bound ligand, and the amplitude of the response was subtracted from that obtained from a control chamber with no ligand. If no change in angle of resonance was observed, this was taken as an indication of absence of binding. The amplitude of the change in angle of resonance (expressed as “response units”) is a function of the molecular mass of the analyte, and for comparison purposes response units were therefore normalized taking into account the molecular weight of the tested compound. Change in angle of incidence of resonance (in “resonance units”) was plotted against time after onset of cyclic peptide exposure. The various curves correspond to different applied concentrations of the peptide in question, as follows:
Compounds of the present invention may be tested for binding to the carboxyl terminal domain of Cx43 using Surface Plasmon Resonance (“SPR”). SPR is a technique that was used to identify the original RXPE sequence (Shibayama et al., “Identification of a Novel Peptide that Interferes with the Chemical Regulation of Connexin-43,” Circ. Res. 98:1365-72 (2006)). The concentration of the compound relative to the amplitude of the response in arbitrary units is measured.
Recombinant Cx43CT is covalently bound to a carboxylmethyl dextran matrix (Salemon et al., “Surface Plasmon Resonance Spectroscopy as a Tool for Investigating the Biochemical and Biophysical Properties of Membrane Protein Systems. II: Applications to Biological Systems,” Biochim. Biophys. Acta 1331(2):131-152 (1997)). Specific peptide compounds are presented and, when feasible, dissociation constants (KD) are calculated from the time course of binding and unbinding of the ligand, using a 1:1 (Langmuir) association and dissociation kinetic model (Biacore software package). In both phases (association and dissociation), the first 5-8 seconds of recording are not included in the fit, to avoid artifacts resulting from peptide distribution within the flow cells (Lang et al., “Surface Plasmon Resonance as a Method to Study the Kinetics and Amplitude of Protein-protein Binding,” in Practical Methods in Cardiovascular Research 936-947 (Stefan Dhein, Friedrich Wilhelm Mohr & Mario Delmar eds., 2005). In the present experiments recombinant rat Cx43CT was covalently bound to a carboxylmethyl-dextran matrix and used as ligand.
Examples of the cyclic peptide compounds of the present invention were presented to the bound ligand, and the amplitude of the response was subtracted from that obtained from a control chamber with no ligand. No change in angle of resonance was taken as an indication of absence of binding. The amplitude of the change in angle of resonance (expressed as “response units”) is a function of the molecular mass of the analyte and for comparison purposes response units were normalized taking account of the molecular weight of the tested compound. Change in angle of incidence of resonance (in “resonance units”) was plotted against time after onset of cyclic peptide exposure.
SPR allows for assessment of ligand-analyte binding in real time, and was used for characterization of two of the cyclic peptide compounds of the present invention. Cx43CT was covalently bound to the matrix of a sensor chip. […] In FIG. 1, the change in angle of incidence of resonance (in “resonance units”) is plotted against time after onset of cyclic peptide exposure. Different concentrations were applied, as indicated.

Cx43 [1] = biological target: T1, Cx43 (Homo sapiens, UniProt P17302); test: Octanol-induced uncoupling, dual-cell patch clamp, junctional conductance (Gj) in Cx43-expressing N2A cell pairs; assay type: cell-based, mouse; conditions: for cells remaining coupled ten minutes after the onset of octanol superfusion: peptide 100 μM in pipette, 1.5 mM octanol, 10 min; for effect on octanol-induced decrease of Gj compared to control (in words): 1.5 mM octanol perfusion
T1 construct: expressed in transfected cells; host or cells: N2a (mouse neuroblastoma) cells, transiently transfected
Experimental: FIG. 2. Time course of octanol-induced uncoupling in human Cx43-expressing N2A cells. Cell pairs were recorded with patch pipettes that contained either ZP2778 (0.1 mM; upper curve/trace), or only the internal pipette filling solution (control; lower curve/trace). Experiments were conducted using the dual-cell patch clamp technique, and 1.5 mM octanol perfusion was started at Time=0.
(§1) Patch clamp experiments were conducted in N2a cells transiently transfected with Cx43. In all cases, the dual-whole-cell voltage clamp technique was used to record gap junction currents. Specifics for cell culture, transfection and recordings are described in Shibayama et al. (Identification of a novel peptide that interferes with the chemical regulation of connexin 43. Circ Res 2006 98:1365-72). Octanol superfusion was initiated 5 minutes after patch break and continued for 10 minutes. Concentration of octanol was 1.5 mM in all experiments. Peptides were diluted in the internal pipette solution to a final concentration of 100 μM. A total of 20 experiments were carried out where octanol-induced uncoupling was tested in the absence of peptides. These experiments were averaged, and data used as control for comparison with those series where a given peptide was assessed. Patch clamp experiments were also conducted (cf. FIG. 6 herein) using ventricular myocytes from neonatal Sprague-Dawley rats (rats supplied by Charles River, Mass. USA), isolated and cultured according to Rohr et al. (see Circ. Res. 1991; 68: 114-130, and J. Cardiovasc. Electrophysiol. 1995; 6: 551-568).
Junctional conductance (Gj) was measured in N2a cell pairs expressing Cx43. Patch pipettes were filled with an internal solution containing the specific peptide under study, and the time course and extent of octanol-induced uncoupling was compared to that observed in the absence of the peptide. FIGS. 2-5 show average measurements of junctional conductance and percent of coupled cells recorded at various times after the onset of octanol superfusion for the cyclized peptides ZP2769, ZP2771, ZP2778, ZP2782 and for the dissolution medium (internal pipette solution) used as control. […] For ZP2778 (FIG. 2), 60% of the cells remained coupled, while 20% remained coupled for ZP2782 (FIG. 4).

Cx43 [2] = biological target: T1, Cx43; test: Acidification-induced uncoupling (pH 6.2), dual-cell patch clamp in Cx43-expressing N2A cell pairs; conditions: peptide 0.1 mM in patch pipette, N2A cells
Experimental: FIG. 6. Upper graph: Time course of acidification-induced uncoupling in human Cx43-expressing N2A cells. Cell pairs were recorded with patch pipettes that contained either ZP2771 (0.1 mM; upper curve), or only the internal pipette filling solution buffered to pH 6.2 (control; lower curve). Experiments were conducted using the dual-cell patch clamp technique.
as §1, with “Patch clamp experiments were also conducted (cf. FIG. 6 herein) using ventricular myocytes from neonatal Sprague-Dawley rats (rats supplied by Charles River, Mass. USA), isolated and cultured according to Rohr et al. (see Circ. Res. 1991; 68: 114-130, and J. Cardiovasc. Electrophysiol. 1995; 6: 551-568).” left out

[3] = test system: neonatal rat ventricular cardiac myocytes; test: Acidification-induced uncoupling (pH 6.2), dual-cell patch clamp in neonatal rat ventricular cardiac myocytes; assay type: cell-based; conditions: peptide 0.1 mM buffered to pH 6.2
Experimental: Lower graph: Time course of acidification-induced uncoupling in neonatal rat ventricular cardiac myocytes. Cell pairs were recorded with patch pipettes that contained (i) ZP2771 (0.1 mM, buffered to pH 6.2; uppermost curve; filled square symbols), (ii) linear peptide RRPPYR (0.1 mM buffered to pH 6.2; middle curve; filled triangle symbols), or (iii) only the internal pipette filling solution buffered to pH 6.2 (lowermost curve; filled circle symbols). Experiments were conducted using the dual-cell patch clamp technique.
as §1

[4] = peptide 0.1 mM in patch pipette

recombinant rat Cx43CT, sequence (P08050 229-382 limits assumed): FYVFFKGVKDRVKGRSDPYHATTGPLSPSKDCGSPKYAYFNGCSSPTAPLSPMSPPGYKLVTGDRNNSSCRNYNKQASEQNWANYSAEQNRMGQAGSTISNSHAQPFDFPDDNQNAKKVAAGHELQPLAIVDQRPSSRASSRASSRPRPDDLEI
T1 sequence (P17302 2-382 limits assumed): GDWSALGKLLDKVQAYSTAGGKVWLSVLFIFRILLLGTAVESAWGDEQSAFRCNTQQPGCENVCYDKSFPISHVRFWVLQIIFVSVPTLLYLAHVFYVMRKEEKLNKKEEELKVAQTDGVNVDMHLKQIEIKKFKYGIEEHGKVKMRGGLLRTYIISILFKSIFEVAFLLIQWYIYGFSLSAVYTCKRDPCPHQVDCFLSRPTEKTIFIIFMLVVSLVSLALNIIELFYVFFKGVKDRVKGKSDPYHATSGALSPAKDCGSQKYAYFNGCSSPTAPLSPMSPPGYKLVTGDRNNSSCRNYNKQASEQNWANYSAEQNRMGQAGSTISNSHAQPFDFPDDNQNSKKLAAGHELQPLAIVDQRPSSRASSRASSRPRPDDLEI

Row | Substance | binding to the Cx43CT (in words) (recombinant rat Cx43CT) | Resonance Units (ru) (recombinant rat Cx43CT; peptide conc 0.063 mM) | (ru * 100)/Mw (recombinant rat Cx43CT; peptide conc 0.063 mM) | Resonance Units (ru) (recombinant rat Cx43CT; peptide conc 0.125 mM) | (ru * 100)/Mw (recombinant rat Cx43CT; peptide conc 0.125 mM) | Resonance Units (ru) (recombinant rat Cx43CT; peptide conc 0.250 mM) | (ru * 100)/Mw (recombinant rat Cx43CT; peptide conc 0.250 mM) | Resonance Units (ru) (recombinant rat Cx43CT; peptide conc 0.500 mM) | (ru * 100)/Mw (recombinant rat Cx43CT; peptide conc 0.500 mM) | Resonance Units (ru) (recombinant rat Cx43CT; peptide conc 1.000 mM) | (ru * 100)/Mw (recombinant rat Cx43CT; peptide conc 1.000 mM) | cells remaining coupled ten minutes after the onset of octanol superfusion (Cx43 [1]) | effect on octanol-induced decrease of Gj compared to control (in words) (Cx43 [1]; [4]) | Gj fifteen minutes after patch break [3] | other results
1 | Cyclo(RRPPYRQ) (cyclic) [ZP2771] | significant binding | 192.4 | 20.18 | 323.6 | 33.94 | 574.0 | 60.20 | 896.0 | 93.97 | 1253.0 | 131.41 | all cells remained coupled | significantly (p<0.05) prevented the decrease of Gj | approximately 0.47 | Resonance Units (ru) (recombinant rat Cx43CT; peptide conc 0.008 mM): 27.6 ru; (ru * 100)/Mw (recombinant rat Cx43CT; peptide conc 0.008 mM): 2.89; Resonance Units (ru) (recombinant rat Cx43CT; peptide conc 0.016 mM): 58.1 ru; (ru * 100)/Mw (recombinant rat Cx43CT; peptide conc 0.016 mM): 6.09; Resonance Units (ru) (recombinant rat Cx43CT; peptide conc 0.031 mM): 95.8 ru; (ru * 100)/Mw (recombinant rat Cx43CT; peptide conc 0.031 mM): 10.05; Gj at the end of the experiment (Cx43 [1]; peptide 0.1 mM in patch pipette, after 10 minutes of 1.5 mM octanol perfusion): approximately 0.65; Gj fifteen minutes (900 sec) after patch break (Cx43 [2]): approximately 0.49; effect on acidification-induced decrease of Gj compared to control (in words) (Cx43 [2]): significantly (p=0.002) prevented the decrease of Gj; effect on acidification-induced decrease of Gj compared to linear peptide and control (in words) [3]: significantly (p=0.006) prevented the decrease of Gj
2 | RRPPYR [reference compound] |  |  |  |  |  |  |  |  |  |  |  |  |  | approximately 0.17 | 
3 | cyclo(RRPPWN) [ZP2782] |  |  |  |  |  |  |  |  |  |  |  | 20% | reduction in the decrease of Gj |  | 
4 | cyclo(RRPPYN) [ZP2778] |  |  |  |  |  |  |  |  |  |  |  | 60% | significantly (p<0.05) prevented the decrease of Gj |  | 
5 | cyclo(RRPPYQ) [ZP2769] | significant binding | 18.6 | 2.33 | 29.6 | 3.71 | 55.8 | 6.99 | 101.9 | 12.77 | 196.2 | 24.59 | all cells remained coupled | marked reduction in the decrease of Gj |  | 
